Data reported in patent US20150374794A1 (Novo Nordisk, published 2015).
Numbered stars: 1 amine (or outer) side, 2 acyl side, 3 side chain; on linkers, the order of the positions; unused ones are H or OH. Square brackets hold non-standard residues; d marks the D form. Side chains are listed from the residue outwards. Ends that are not written are not given here. * marks the point of attachment. C18 diacid = O=C(O)CCCCCCCCCCCCCCCCC(=O)*; γGlu = O=C(O)[C@H](CCC(=O)[*:2])N[*:1]; Ac4c = NC1(C(=O)O)CCC1; AEEA = NCCOCCOCC(=O)O; Aib = CC(C)(N)C(=O)O

Key:
[1] = biological target: T1, human glucagon receptor (human, UniProt P47871 26-477); assay: displacement of 125I-glucagon, membranes with human glucagon receptor, SPA
T1 construct: whole, on cells; the potency assay used whole cells (clone pLJ6'-4-25); also called GlucR; hGCGR
T1 sequence (P47871 26-477): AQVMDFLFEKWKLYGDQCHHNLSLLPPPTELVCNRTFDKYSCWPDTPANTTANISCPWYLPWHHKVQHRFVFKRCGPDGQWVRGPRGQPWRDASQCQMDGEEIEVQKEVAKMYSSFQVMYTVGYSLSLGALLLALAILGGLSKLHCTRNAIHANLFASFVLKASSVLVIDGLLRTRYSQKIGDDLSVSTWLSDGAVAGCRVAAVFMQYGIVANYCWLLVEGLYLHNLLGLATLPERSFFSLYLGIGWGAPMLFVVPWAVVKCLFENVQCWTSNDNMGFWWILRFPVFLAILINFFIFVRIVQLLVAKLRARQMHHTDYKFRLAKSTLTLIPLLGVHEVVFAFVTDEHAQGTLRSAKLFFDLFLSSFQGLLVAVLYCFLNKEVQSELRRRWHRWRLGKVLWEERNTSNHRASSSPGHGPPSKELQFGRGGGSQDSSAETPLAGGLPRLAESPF
Description: (§1) The receptor binding of each compound to the human glucagon receptor was measured in a displacement binding assay. […] Each derivative was added in a series of concentrations to isolated membranes containing the human glucagon receptor and displacement of the labelled ligand is monitored. The receptor binding was reported as the concentration at which half of the labelled ligand is displaced from the receptor, the IC₅₀ value.

[2] = biological target: T1, human glucagon receptor; assay: cell-based or functional assay
[3] = biological target: T2, human GLP-1 receptor (human, UniProt P43220 24-463); assay: cell-based or functional assay
[4] = biological target: T2, human GLP-1 receptor; assay: displacement of 125I-GLP-1(7-36)NH2, membranes with human GLP-1R, SPA
Description: as §1, with “human GLP-1” for “human glucagon”, “ligand was” for “ligand is”

Row | Binder | IC50 [1] [nM] | EC50 GlucR, CRE luciferase reporter gene assay in BHK cells [2] [nM] | EC50 GLP-1R, CRE luciferase reporter gene assay in BHK cells [3] [nM] | IC50 [4] [nM]
1 | H[Ac4c]QGTFTSDLSKYLDLRRAREFVQWLLK([γGlu-γGlu-AEEA-AEEA-γGlu-γGlu-C18 diacid])T-NH2 (N-terminus assumed; SMILES CC(C)C[C@H](NC(=O)[C@H](CC(=O)O)NC(=O)[C@H](CC(C)C)NC(=O)[C@H](Cc1ccc(O)cc1)NC(=O)[C@H](CCCCN)NC(=O)[C@H](CO)NC(=O)[C@H](CC(C)C)NC(=O)[C@H](CC(=O)O)NC(=O)[C@H](CO)NC(=O)[C@@H](NC(=O)[C@H](Cc1ccccc1)NC(=O)[C@@H](NC(=O)CNC(=O)[C@H](CCC(N)=O)NC(=O)C1(NC(=O)[C@@H](N)Cc2c[nH]cn2)CCC1)[C@@H](C)O)[C@@H](C)O)C(=O)N[C@@H](CCCNC(=N)N)C(=O)N[C@@H](CCCNC(=N)N)C(=O)N[C@@H](C)C(=O)N[C@@H](CCCNC(=N)N)C(=O)N[C@@H](CCC(=O)O)C(=O)N[C@@H](Cc1ccccc1)C(=O)N[C@H](C(=O)N[C@@H](CCC(N)=O)C(=O)N[C@@H](Cc1c[nH]c2ccccc12)C(=O)N[C@@H](CC(C)C)C(=O)N[C@@H](CC(C)C)C(=O)N[C@@H](CCCCNC(=O)CC[C@H](NC(=O)CC[C@H](NC(=O)COCCOCCNC(=O)COCCOCCNC(=O)CC[C@H](NC(=O)CC[C@H](NC(=O)CCCCCCCCCCCCCCCCC(=O)O)C(=O)O)C(=O)O)C(=O)O)C(=O)O)C(=O)N[C@H](C(N)=O)[C@@H](C)O)C(C)C) | 1.7 | 0.004 | 0.017 | 0.4
2 | H[Aib]QGTFTSDLSKYLESKRARSFVQWLLK([γGlu-γGlu-Ser-Glu-Ser-γGlu-γGlu-C18 diacid])T-NH2 | 9.5 | 0.068 | 0.007 | 0.2
3 | H[Aib]QGTFTSDLSRYLDARRARDFVQWLLK([γGlu-γGlu-γGlu-C18 diacid])T-NH2 (N-terminus assumed; SMILES CC(C)C[C@H](NC(=O)[C@H](Cc1ccc(O)cc1)NC(=O)[C@H](CCCNC(=N)N)NC(=O)[C@H](CO)NC(=O)[C@H](CC(C)C)NC(=O)[C@H](CC(=O)O)NC(=O)[C@H](CO)NC(=O)[C@@H](NC(=O)[C@H](Cc1ccccc1)NC(=O)[C@@H](NC(=O)CNC(=O)[C@H](CCC(N)=O)NC(=O)C(C)(C)NC(=O)[C@@H](N)Cc1c[nH]cn1)[C@@H](C)O)[C@@H](C)O)C(=O)N[C@@H](CC(=O)O)C(=O)N[C@@H](C)C(=O)N[C@@H](CCCNC(=N)N)C(=O)N[C@@H](CCCNC(=N)N)C(=O)N[C@@H](C)C(=O)N[C@@H](CCCNC(=N)N)C(=O)N[C@@H](CC(=O)O)C(=O)N[C@@H](Cc1ccccc1)C(=O)N[C@H](C(=O)N[C@@H](CCC(N)=O)C(=O)N[C@@H](Cc1c[nH]c2ccccc12)C(=O)N[C@@H](CC(C)C)C(=O)N[C@@H](CC(C)C)C(=O)N[C@@H](CCCCNC(=O)CC[C@H](NC(=O)CC[C@H](NC(=O)CC[C@H](NC(=O)CCCCCCCCCCCCCCCCC(=O)O)C(=O)O)C(=O)O)C(=O)O)C(=O)N[C@H](C(N)=O)[C@@H](C)O)C(C)C) | 3.9 | 0.01 | 0.008 | 0.2
4 | H[Aib]QGTFTSDLSKYLDKRRAREFVAWLLNT-NH2 (not fully specified (residue 16)) | 8.5 | 0.0399 | 0.0047 | 0.9
5 | H[Aib]QGTFTSDLSKYLESRRAREFVQWLLNK([γGlu-AEEA-AEEA-γGlu-γGlu-C18 diacid])-NH2 (N-terminus assumed; SMILES CC(C)C[C@H](NC(=O)[C@H](CC(C)C)NC(=O)[C@H](Cc1c[nH]c2ccccc12)NC(=O)[C@H](CCC(N)=O)NC(=O)[C@@H](NC(=O)[C@H](Cc1ccccc1)NC(=O)[C@H](CCC(=O)O)NC(=O)[C@H](CCCNC(=N)N)NC(=O)[C@H](C)NC(=O)[C@H](CCCNC(=N)N)NC(=O)[C@H](CCCNC(=N)N)NC(=O)[C@H](CO)NC(=O)[C@H](CCC(=O)O)NC(=O)[C@H](CC(C)C)NC(=O)[C@H](Cc1ccc(O)cc1)NC(=O)[C@H](CCCCN)NC(=O)[C@H](CO)NC(=O)[C@H](CC(C)C)NC(=O)[C@H](CC(=O)O)NC(=O)[C@H](CO)NC(=O)[C@@H](NC(=O)[C@H](Cc1ccccc1)NC(=O)[C@@H](NC(=O)CNC(=O)[C@H](CCC(N)=O)NC(=O)C(C)(C)NC(=O)[C@@H](N)Cc1c[nH]cn1)[C@@H](C)O)[C@@H](C)O)C(C)C)C(=O)N[C@@H](CC(N)=O)C(=O)N[C@@H](CCCCNC(=O)CC[C@H](NC(=O)COCCOCCNC(=O)COCCOCCNC(=O)CC[C@H](NC(=O)CC[C@H](NC(=O)CCCCCCCCCCCCCCCCC(=O)O)C(=O)O)C(=O)O)C(=O)O)C(N)=O) | 51 | 0.24 | 0.0027 | 0.3
6 | H[Aib]QGTFTSDLSKYLDARRARDFVQWLLNK([γGlu-γGlu-AEEA-AEEA-γGlu-C18 diacid])-NH2 (N-terminus assumed; SMILES CC(C)C[C@H](NC(=O)[C@H](Cc1ccc(O)cc1)NC(=O)[C@H](CCCCN)NC(=O)[C@H](CO)NC(=O)[C@H](CC(C)C)NC(=O)[C@H](CC(=O)O)NC(=O)[C@H](CO)NC(=O)[C@@H](NC(=O)[C@H](Cc1ccccc1)NC(=O)[C@@H](NC(=O)CNC(=O)[C@H](CCC(N)=O)NC(=O)C(C)(C)NC(=O)[C@@H](N)Cc1c[nH]cn1)[C@@H](C)O)[C@@H](C)O)C(=O)N[C@@H](CC(=O)O)C(=O)N[C@@H](C)C(=O)N[C@@H](CCCNC(=N)N)C(=O)N[C@@H](CCCNC(=N)N)C(=O)N[C@@H](C)C(=O)N[C@@H](CCCNC(=N)N)C(=O)N[C@@H](CC(=O)O)C(=O)N[C@@H](Cc1ccccc1)C(=O)N[C@H](C(=O)N[C@@H](CCC(N)=O)C(=O)N[C@@H](Cc1c[nH]c2ccccc12)C(=O)N[C@@H](CC(C)C)C(=O)N[C@@H](CC(C)C)C(=O)N[C@@H](CC(N)=O)C(=O)N[C@@H](CCCCNC(=O)CC[C@H](NC(=O)CC[C@H](NC(=O)COCCOCCNC(=O)COCCOCCNC(=O)CC[C@H](NC(=O)CCCCCCCCCCCCCCCCC(=O)O)C(=O)O)C(=O)O)C(=O)O)C(N)=O)C(C)C) | 17 | 0.044 | 0.006 | 0.5
7 | H[Aib]QGTFTSDLSKYLDARRARDFVQWLLSK([γGlu-γGlu-AEEA-AEEA-γGlu-C18 diacid])-NH2 (N-terminus assumed; SMILES CC(C)C[C@H](NC(=O)[C@H](Cc1ccc(O)cc1)NC(=O)[C@H](CCCCN)NC(=O)[C@H](CO)NC(=O)[C@H](CC(C)C)NC(=O)[C@H](CC(=O)O)NC(=O)[C@H](CO)NC(=O)[C@@H](NC(=O)[C@H](Cc1ccccc1)NC(=O)[C@@H](NC(=O)CNC(=O)[C@H](CCC(N)=O)NC(=O)C(C)(C)NC(=O)[C@@H](N)Cc1c[nH]cn1)[C@@H](C)O)[C@@H](C)O)C(=O)N[C@@H](CC(=O)O)C(=O)N[C@@H](C)C(=O)N[C@@H](CCCNC(=N)N)C(=O)N[C@@H](CCCNC(=N)N)C(=O)N[C@@H](C)C(=O)N[C@@H](CCCNC(=N)N)C(=O)N[C@@H](CC(=O)O)C(=O)N[C@@H](Cc1ccccc1)C(=O)N[C@H](C(=O)N[C@@H](CCC(N)=O)C(=O)N[C@@H](Cc1c[nH]c2ccccc12)C(=O)N[C@@H](CC(C)C)C(=O)N[C@@H](CC(C)C)C(=O)N[C@@H](CO)C(=O)N[C@@H](CCCCNC(=O)CC[C@H](NC(=O)CC[C@H](NC(=O)COCCOCCNC(=O)COCCOCCNC(=O)CC[C@H](NC(=O)CCCCCCCCCCCCCCCCC(=O)O)C(=O)O)C(=O)O)C(=O)O)C(N)=O)C(C)C) | 10.4 | 0.047 | 0.005 | 0.6
8 | H[Aib]QGTFTSDLSKYLDSKAAQEFVQWLLNK([γGlu-γGlu-AEEA-AEEA-γGlu-C18 diacid])-NH2 (N-terminus assumed; SMILES CC(C)C[C@H](NC(=O)[C@H](CC(C)C)NC(=O)[C@H](Cc1c[nH]c2ccccc12)NC(=O)[C@H](CCC(N)=O)NC(=O)[C@@H](NC(=O)[C@H](Cc1ccccc1)NC(=O)[C@H](CCC(=O)O)NC(=O)[C@H](CCC(N)=O)NC(=O)[C@H](C)NC(=O)[C@H](C)NC(=O)[C@H](CCCCN)NC(=O)[C@H](CO)NC(=O)[C@H](CC(=O)O)NC(=O)[C@H](CC(C)C)NC(=O)[C@H](Cc1ccc(O)cc1)NC(=O)[C@H](CCCCN)NC(=O)[C@H](CO)NC(=O)[C@H](CC(C)C)NC(=O)[C@H](CC(=O)O)NC(=O)[C@H](CO)NC(=O)[C@@H](NC(=O)[C@H](Cc1ccccc1)NC(=O)[C@@H](NC(=O)CNC(=O)[C@H](CCC(N)=O)NC(=O)C(C)(C)NC(=O)[C@@H](N)Cc1c[nH]cn1)[C@@H](C)O)[C@@H](C)O)C(C)C)C(=O)N[C@@H](CC(N)=O)C(=O)N[C@@H](CCCCNC(=O)CC[C@H](NC(=O)CC[C@H](NC(=O)COCCOCCNC(=O)COCCOCCNC(=O)CC[C@H](NC(=O)CCCCCCCCCCCCCCCCC(=O)O)C(=O)O)C(=O)O)C(=O)O)C(N)=O) | 6.7 | 1.13 | 0.0296 | 1.1
